The data set deals with the molecule itself. In words: crystal structure.

B1: Cj1441, UDP-glucose 6-dehydrogenase from Campylobacter jejuni NCTC 11168 (enzyme)
chain: MKIVIVGIGYVGLANAILFSKNNENEVVLLDIDENKIQSINNHKSPIKDKLIEKFFVQNISKLHATSNIKEAYFNADFAVIATPTDYDEQLNFFDTRSIENVLKDIKNINSKINVIIKSTVPIGYTKTIKQKFNMSNIVFSPEFLREGSALYDSLYPSRIIIGDKSVLGKTIGDLFLKNIEKKNVDIFYMDSDEAESVKLFSNTYLAMRVGFFNEVDSYARKHNLNSADIIKGISADDRIGKYYNNPSFGYGGYCLPKDTKQLLANFYNIPNSLIKAIVETNEIRKKFITQLILEKKPNILGIYRLIMKQNSDNFRNSVIIDIIKYLQEYNSNIELIIYEPLVKEKKFLNIKVENDFNVFGAKVDLIIANRFDDKLKEIKDKVFSADVFYTDI
B1: the binding result was “binds”.
